Two molecules from patent US20190092852A1 (Genentech, published 2019) can be followed below.

The target in test [1] is T1, cyno IL-33 N-His (cynomolgus monkey).
T1 chain: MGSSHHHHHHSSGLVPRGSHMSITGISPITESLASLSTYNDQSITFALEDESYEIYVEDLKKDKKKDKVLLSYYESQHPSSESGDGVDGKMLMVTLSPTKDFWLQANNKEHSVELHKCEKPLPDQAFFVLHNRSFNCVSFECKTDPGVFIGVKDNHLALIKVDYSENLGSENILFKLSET
Briefly: SPR Biacore T200, 25 C. The essentials:
(§1)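 Antibodies captured via anti-Fc on CM5 chip; IL-33 injected at 3.7–100 nM (three-fold series), 4 min association, 10 min dissociation, 30 μl/min, ADA pH 7.4 buffer with 0.15 M NaCl, EDTA, Tween-20, at 25 °C or 37 °C. KD = koff/kon from 1:1 Langmuir fit; t1/2 = ln(2)/(60*koff).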
In general terms: In SPR one partner is held on a chip, and binding of the other changes the refractive index at the surface.

The target in test [2] is T2, human IL-33 (R&D Systems, #3625-IL-010/CF) (human, UniProt O95760 112-270).
T2 construct: also called hIL-33; huIL-33
T2 sequence (looked up): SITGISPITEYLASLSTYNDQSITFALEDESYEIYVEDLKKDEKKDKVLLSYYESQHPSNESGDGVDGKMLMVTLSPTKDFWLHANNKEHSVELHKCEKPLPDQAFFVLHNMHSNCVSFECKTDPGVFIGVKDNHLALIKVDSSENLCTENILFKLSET
Briefly: SPR Biacore T200, 37 C. The essentials: as §1

Test [3] has as its target T1, cyno IL-33 N-His. The test can be described thus: SPR Biacore T200, 37 C. The essentials:
as §1

The target in test [4] is T2, human IL-33 (R&D Systems, …). The test can be described thus: cell-based or functional assay.
The next test deals with T3, biotinylated cyno IL-33 (cynomolgus monkey, UniProt A0A2K5W3I1 112-269, biotin-labeled with EZ-LINK NHS-PEG4-Biotin).
T3 construct: also called biotin-cyIL-33
T3 sequence: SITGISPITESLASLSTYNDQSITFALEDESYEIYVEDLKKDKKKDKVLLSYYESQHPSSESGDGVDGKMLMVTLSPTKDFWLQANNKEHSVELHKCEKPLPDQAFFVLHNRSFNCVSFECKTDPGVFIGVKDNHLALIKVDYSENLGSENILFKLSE
Briefly: competitive ELISA, biotin-cyIL-33 to coated hST2-Fc. The essentials:
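Recombinant human ST2-Fc coated at 1 μg/ml; biotin-IL-33 (final 20 pM human, 45 pM cyno) premixed 1 h RT with serially diluted antibody (0–300 nM final), then bound to ST2-Fc 1 h RT. Streptavidin-polyHRP/TMB, A450; IC₅₀ from four-parameter fit, max blocking relative to IL-33-alone signal minus background.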
On the technique in general: An ELISA detects its analyte on a solid surface through an enzyme-linked reagent.

The next test has as its target T4, biotinylated human IL-33 (human, UniProt O95760 112-270, biotin-labeled with EZ-LINK NHS-PEG4-Biotin).
T4 construct: also called biotin-huIL-33
T4 sequence (looked up): T2 sequence (looked up)
The test can be described thus: competitive ELISA, biotin-huIL-33 to coated hST2-Fc.

B1: 10C12.38.H6.87Y.58I IgG4 (antibody, V domains shown)
VH: EVQLVESGGGLVQPGGSLRLSCAASGFTFSSFSMSWVRQAPGKGLEWVATISGGKTFTDYVDSVKGRFTISRDDSKNTLYLQMNSLRAEDTAVYYCTRANYGNWFFEVWGQGTLVTVSS
VL: EIVLTQSPATLSLSPGERATLSCRASESVAKYGLSLLNWFQQKPGQPPRLLIFAASNRGSGIPARFSGSGSGTDFTLTISSLEPEDFAVYYCQQSKEVPFTFGQGTKVEIKR
notes: also called anti-IL33 10C12.38.H6.87Y.58I IgG4
One may read the Kd as the concentration at which binding is half-saturated. Low values mean a tighter complex, high ones a looser complex. Usually koff stands for a measure of how fast the partners let go of each other. High values mean a short-lived complex, low ones a long-lived complex. For orientation: kon means a measure of how fast the partners come together. Read a high kon as fast association. For orientation: IC50 means the point on the concentration scale where inhibition reaches its midpoint. For B1, in the test with cyno IL-33 N-His [1], the affinity, expressed as Kd, was 265 pM; the off-rate constant (koff) worked out at 0.000278 s⁻¹; the kon was determined as 1.05e+06 M⁻¹ s⁻¹; the t1/2 was 42 min. Moreover, in test [2], binding was put at a Kd of 88.9 pM, the koff worked out at 0.000547 s⁻¹, the on-rate constant (kon) is 6.16e+06 M⁻¹ s⁻¹ and the t1/2 is 21 min. In the test with cyno IL-33 N-His [3], the affinity, expressed as Kd, was 476 pM; the koff is 0.000804 s⁻¹; the kon turned out to be 1.69e+06 M⁻¹ s⁻¹; the t1/2 is 14 min. In addition, in test [4], the “Ph-p38 MFI at 0.4 nM Ab (500 pM human IL-33, primary basophils)” value stood at 34 MFI. Also, in the test with biotinylated cyno IL-33, the IC50 amounted to 430 pM and the “Maximum Blocking” value was found to be 87%. Besides, in the test with biotinylated human IL-33, the IC50 is 21 pM and the “Maximum Blocking” value is 92%.

B2: H4H9659P (antibody, IgG4, V domains shown)
VH: QVQLVQSGAEVKKPGASVKVSCKASGYTFNSYGISWVRQAPGQGLEWMGWISSHNGNSHYVQKFQGRVSMTTDTSTSTAYMELRSLRSDDTAVYYCARHSYTTSWYGGFDYWGQGTLVTVSS
VL: DIQMTQSPSSVSASVGDRVTITCRASQGFSSWLAWYQQKPGKAPQLLIYAASSLQSGVPSRFSGSGSGSDFTLTISSLQPEDFATYYCQQANSFPLTFGGGTKVEIK
notes: also called RG7
In the test with cyno IL-33 N-His [1], B2 showed a Kd of 2610 pM, a koff of 0.000479 s⁻¹, a kon of 183000 M⁻¹ s⁻¹ and a t1/2 of 24 min. In test [2], the affinity, expressed as Kd, was 462 pM; the koff was found to be 0.000498 s⁻¹; the kon worked out at 1.08e+06 M⁻¹ s⁻¹; the t1/2 is 23 min. In the test with cyno IL-33 N-His [3], this molecule yielded a Kd of 4130 pM, a koff of 0.00114 s⁻¹, a kon of 277000 M⁻¹ s⁻¹ and a t1/2 of 10 min. The “Ph-p38 MFI at 0.4 nM Ab (500 pM human IL-33, primary basophils)” value in test [4] was 119 MFI. Also, in the test with biotinylated cyno IL-33, the IC50 worked out at 47000 pM and the “Maximum Blocking” value is 42%. For the same molecule, in the test with biotinylated human IL-33, the IC50 came to 230 pM and the “Maximum Blocking” value is 88%.
